Source: patent US12692310B2, “ASIC1 channel antagonist antibody” (ShanghaiTech University, priority 2019, dated 2026)

Biological target: T1, hASIC1a (Homo sapiens, UniProt P78348)
T1 construct: expressed in transfected cells
T1 sequence (P78348 1-528): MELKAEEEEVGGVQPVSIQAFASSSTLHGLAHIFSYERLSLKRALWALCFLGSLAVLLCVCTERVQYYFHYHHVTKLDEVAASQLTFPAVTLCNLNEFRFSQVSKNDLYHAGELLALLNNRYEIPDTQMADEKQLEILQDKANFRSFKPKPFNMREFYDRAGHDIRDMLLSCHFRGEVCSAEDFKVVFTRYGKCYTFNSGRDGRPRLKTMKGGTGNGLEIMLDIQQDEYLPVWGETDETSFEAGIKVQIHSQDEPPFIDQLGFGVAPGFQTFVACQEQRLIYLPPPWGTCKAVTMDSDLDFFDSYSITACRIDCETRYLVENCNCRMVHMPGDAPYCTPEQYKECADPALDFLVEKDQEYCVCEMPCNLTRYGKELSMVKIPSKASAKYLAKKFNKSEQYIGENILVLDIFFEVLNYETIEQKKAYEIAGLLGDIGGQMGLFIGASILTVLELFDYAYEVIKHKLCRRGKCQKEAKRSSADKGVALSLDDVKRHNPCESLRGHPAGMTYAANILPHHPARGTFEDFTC
Experiment: Steady-state desensitization (SSD) and pH activation of hASIC1a, patch clamp
Type: cell-based
Method: For the measurement of steady-state desensitization (SSD), the pH of the conditioning ECF was adjusted to 7.6, 7.4, 7.2, 7.0, and 6.8 (in a HEPES buffer), while the activating ECF was maintained at pH 6.0 (in an MES buffer). For the measurement of pH activation of the hASIC1a in the 6H7 stable cells, the conditioning ECF was fixed at pH 7.6 (in a HEPES buffer), and the pH of the activating ECF was adjusted to 7.4, 7.2, 7.0, 6.8, 6.5, 6.3, and 6.0. The hASIC1a currents were recorded when the stable cell line 6H7 was patched in the presence and absence of 300 nM ASC06-IgG1. The relative currents expressed as fractions of the maximum amplitude on the sensorgram (I/Imax) were calculated and plotted to constitute SSD and pH activation profiles. Each data point represents the average of at least five patched cells.
To understand the mechanism by which ASC06-IgG1 blocked the hASIC1a currents, SSD and pH activation of hASIC1a in the absence and presence of ASC06-IgG1 were examined. The pH50 (a drop in extracellular pH, which can open 50% of the ASIC1a channel) values of the SSD curve and the pH activation curve for hASIC1a were measured and compared with or without 300 nM ASC06-IgG1. As shown in FIGS. 11A-11B, the SSD was induced when applying the conditioning extracellular fluids (ECFs) with different pH values and the activating ECF at pH 6.0, whereas the pH activation curve was constructed when applying the activating ECFs with varying pH values and the conditioning ECF at pH 7.6.

B1: ASC06-IgG1: ASC06 antibody converted into a full length IgG1 form (antibody, V domains shown)
VH: QVQLQQSGGGLVQPGGSLRLSCAASGFTFSSYAMSWVRQAPGKGLEWVSAISGSGGSTYYADSVKGRFTISRDNSKNTLYLQMNSLRAEDTAVYYCAKDSFYGYSKGDWGQGTLVTVSS
VL: QSALTQPASVSGSPGQSITISCTGTSSDVGAYNYVSWYQQQPGKAPKLMIYGVSNRPSGVSNRFSGSKSGNAASLTISGLQAEDEADYYCSSYTSSSTYVFGTGTKLTVLG
  mechanism of block relative to proton concentration: noncompetitive with the proton concentration
300 nM, activating ECF pH 6.0
  change of pH50 value of SSD: No significant differences
300 nM, conditioning ECF pH 7.6
  change of pH50 value of pH activation: No significant differences
300 nM, representative traces
  interference with SSD and activation of ASIC1a: interferes with neither SSD nor activation
